In US20080171037A1 (Genentech, published 2008):

Target: T1, ECD of the Apo-2L receptor, DR5 (UniProt O14763 56-210, limits assumed)
T1 construct: extracellular domain; Comparison receptor
Assay: co-immunoprecipitation (anti-Flag sepharose or nickel-sepharose), Western blot with nickel-conjugated HRP
Experimental: The respective ligands (1 μg/ml) and receptors (1 μg/ml) were incubated for 1 hour at room temperature. The reaction mixtures were subjected to precipitation with anti-Flag antibody conjugated to sepharose beads (Kodak) (FIG. 8A, left) or nickel-sepharose (Qiagen) (FIG. 8A, right) by overnight incubation at 4° C. according to manufacturer's instructions and resolved by gel electrophoresis. The ligands were visualized by Western blot analysis with nickel-conjugated horseradish peroxidase. In FIG. 8A, molecular weight markers (kDa) are indicated on the left.

B1: His-tagged soluble Apo-3 Ligand (ligand)
chain: MGHHHHHHHHHHSSGHIDDDDKHMRASLSAQEPAQEELVAEEDQDPSELNPQTEESQDPAPFLNRLVRPRRSAPKGRKTRARRAIAAHYEVHPRPGQDGAQAGVDGTVSGWEEARINSSSPLRYNRQIGEFIVTRAGLYYLYCQVHFDEGKAVYLKLDLLVDGVLALRCLEEFSATAASSLGPQLRLCQVSGLLALRPGSSLRIRTLPWAHLKAAPFLTYFGLFQVH
notes: also called histidine tagged soluble Apo-3 Ligand; DNA30879
B1: no binding (tested: 1 µg/ml ligand and 1 µg/ml receptor).
